Experimental data: paper PMC9122904, “Insights into the client protein release mechanism of the ATP-independent chaperone Spy” (Nature Communications, 2022)
Each block holds one binder with its values, some of them ahead of it.

B3: carboxymethylated α-lactalbumin (natural protein, bovine, UniProt P00711 20-142, looked up)
chain: EQLTKCEVFRELKDLKGYGGVSLPEWVCTTFHTSGYDTQAIVQNNDSTEYGLFQINNKIWCKDDQNPHSSNICNISCDKFLDDDLTDDIMCVKKILDKVGINYWLAHKALCSEKLDQWLCEKL
modifications: carboxymethylated (residues not stated); biotin (EZ-link NHS-biotin, 1:1 molar ratio of biotin to protein)
notes: α-lactalbumin, carboxymethylated and thereby unfolded; also called unfolded α-LA
B7: Spy_(29-138) (domain or fragment, UniProt P77754 52-161, looked up)
chain: FKDLNLTDAQKQQIREIMKGQRDQMKRPPLEERRAMHDIIASDTFDKVKAEAQIAKMEEQRKANMLAHMETQNKIYNILTPEQKKQFNANFEKRLTERPAAKGKMPATAE
notes: source: E. coli BL21 (DE3), purified (Ni-NTA, cation exchange, SEC); not shown: His6, N-terminal, cleaved; SUMO, N-terminal, cleaved

Columns and labels:
Settings in all cases: both partners purified
Spy wild type = target: T1, Spy wild type (Escherichia coli K-12 substr. MG1655, UniProt P77754 24-161); experiment: BLI; Octet RED96; biotinylated client loaded on streptavidin sensors, dipped into Spy or Spy variants (0.25, 0.5, 1, 1.5, 2 uM) in 40 mM HEPES, 150 mM NaCl, pH 7.5; kon from kobs against [Spy], Kd = koff/kon
T1 construct: also called WT; source: E. coli BL21 (DE3), purified (Ni-NTA, cation exchange, SEC); not shown: His6, N-terminal, cleaved; SUMO, N-terminal, cleaved
T1 sequence (looked up): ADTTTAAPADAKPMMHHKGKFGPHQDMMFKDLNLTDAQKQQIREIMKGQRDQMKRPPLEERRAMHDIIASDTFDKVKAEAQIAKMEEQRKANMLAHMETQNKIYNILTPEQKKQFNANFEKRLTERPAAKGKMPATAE

Spy (GGGS)2 = target: T2, Spy (GGGS)2 (Escherichia coli K-12 substr. MG1655, UniProt P77754 24-161, (GGGS)2 linker inserted between D26 and M27); experiment: as above
T2 construct: also called Spy variant with a (GGGS)2 linker inserted between D26 and M27; source: E. coli BL21 (DE3), purified (Ni-NTA, cation exchange, SEC); not shown: His6, N-terminal, cleaved; SUMO, N-terminal, cleaved
T2 sequence (looked up): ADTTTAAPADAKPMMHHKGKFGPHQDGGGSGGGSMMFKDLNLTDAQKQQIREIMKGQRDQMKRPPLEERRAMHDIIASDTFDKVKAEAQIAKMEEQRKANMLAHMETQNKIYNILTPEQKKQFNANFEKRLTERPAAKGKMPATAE

Spy_(29-124) [1] = target: T3, Spy_(29-124) (UniProt P77754 52-147); experiment: NMR titration; 0.1 mM [15N]-Spy_(29-124) with unlabeled peptide at molar ratios 1:2 to 1:40; 2D 1H-15N HSQC; 40 mM HEPES-NaOH, 150 mM NaCl, pH 7.5, 25 °C; one-site binding model
T3 construct: structured region of Spy, both disordered termini deleted; residue n is n+23 in P77754; Isotope-labelled ([15N], [13C,15N] or [2H,13C,15N]) in the NMR experiments; source: E. coli BL21 (DE3), purified (Ni-NTA, cation exchange, SEC); not shown: His6-SUMO, N-terminal, cleaved
T3 sequence (looked up): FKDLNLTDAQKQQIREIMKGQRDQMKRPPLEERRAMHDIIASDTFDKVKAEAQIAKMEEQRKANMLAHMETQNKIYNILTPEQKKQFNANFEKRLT

[2] = target: T4, Spy wild type (Spy_(1-138)) (UniProt P77754 24-161); experiment: BLI; Octet RED96; client biotinylated and loaded on streptavidin sensors; Spy or Spy variant in solution at 0.25, 0.5, 1, 1.5 and 2 μM; 40 mM HEPES, 150 mM NaCl, pH 7.5; Kd calculated as koff/kon
T4 construct: Spy, ATP-independent periplasmic chaperone; also called WT; wt; source: E. coli BL21 (DE3), purified (Ni-NTA, cation exchange, SEC); not shown: His6, N-terminal, cleaved; SUMO, N-terminal, cleaved
T4 sequence (looked up): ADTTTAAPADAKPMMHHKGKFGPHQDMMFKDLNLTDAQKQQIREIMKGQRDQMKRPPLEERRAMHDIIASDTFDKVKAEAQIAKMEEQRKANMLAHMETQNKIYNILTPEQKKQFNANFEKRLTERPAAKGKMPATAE

[3] = target: T4, Spy wild type (Spy_(1-138)); experiment: as above; remark: listed apart in the source
[4] = target: T4, Spy wild type (Spy_(1-138)); experiment: as above; remark: listed apart in the source
Spy_(29-138) [5] = target: B7; experiment: as above
Spy_(29-138) [6] = target: B7; experiment: as above; remark: listed apart in the source
Spy_(29-138) [7] = target: B7; experiment: as above; remark: listed apart in the source
Spy_(29-124) [8] = target: T5, Spy_(29-124) (Escherichia coli K-12 substr. MG1655, UniProt P77754 52-147); experiment: NMR titration; 0.1 mM [15N]-Spy29-124 titrated with unlabeled peptide at Spy29-124:peptide 1:2 to 1:40; 1H-15N HSQC, 40 mM HEPES-NaOH, 150 mM NaCl, pH 7.5, 25 °C; global one-site fit of the CSPs of M64, H65, D66, I67, A69, K113, N116, A117, K121; saturation not reached, Kd only an estimate
T5 construct: [15N]-labeled in the NMR titrations; also called termini-free Spy; source: E. coli BL21 (DE3), purified (Ni-NTA, cation exchange, SEC); not shown: His6, N-terminal, cleaved; SUMO, N-terminal, cleaved
T5 sequence (looked up): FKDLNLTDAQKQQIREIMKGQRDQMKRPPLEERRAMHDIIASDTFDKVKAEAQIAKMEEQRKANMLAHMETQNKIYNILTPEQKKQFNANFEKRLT

[9] = target: B3; experiment: BLI; Octet RED96; client biotinylated and loaded on streptavidin sensors; Spy or Spy variant in solution at 0.25, 0.5, 1, 1.5 and 2 μM; 40 mM HEPES, 150 mM NaCl, pH 7.5; Kd calculated as koff/kon
[10] = target: B3; experiment: as above; remark: listed apart in the source
[11] = target: B3; experiment: as above; remark: listed apart in the source
Im7 H40W L53A I54A = target: T6, Im7 H40W L53A I54A (UniProt Q03708 1-87, H40W | L53A | I54A, biotin (EZ-link NHS-biotin, 1:1 molar ratio of biotin to protein)); experiment: BLI; Octet RED96; biotinylated client loaded on streptavidin sensors; Spy or Spy variants at 0.25, 0.5, 1, 1.5 and 2 μM in 40 mM HEPES, 150 mM NaCl, pH 7.5; Kd = koff/kon
T6 construct: Im7 (colicin E7 immunity protein), partially folded mutant; also called Im7AAW; source: purified by a similar procedure to Spy
T6 sequence: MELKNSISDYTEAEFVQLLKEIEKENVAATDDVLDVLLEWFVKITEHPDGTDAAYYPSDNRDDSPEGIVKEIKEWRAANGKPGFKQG

Kd (Spy wild type): 0.64 µM
koff (Spy wild type): 0.178 s⁻¹
kon (Spy wild type): 276000 M⁻¹ s⁻¹
Kd (Spy (GGGS)2): 0.53 µM
koff (Spy (GGGS)2): 0.123 s⁻¹
kon (Spy (GGGS)2): 234000 M⁻¹ s⁻¹
B1: Im7 H40W L53A I54A (natural protein)
chain: MELKNSISDYTEAEFVQLLKEIEKENVAATDDVLDVLLEWFVKITEHPDGTDAAYYPSDNRDDSPEGIVKEIKEWRAANGKPGFKQG
modifications: biotin (EZ-link NHS-biotin, 1:1 molar ratio of biotin to protein)
notes: Im7, colicin E7 immunity protein (gene ceiE7), partially folded mutant H40W L53A I54A; The methods say only that Im7 variants were purified by a similar procedure to Spy (His6-SUMO tag removed); also called Im7AAW; biotin-labeled Im7AAW; source: purified by a similar procedure to Spy

Kd (Spy_(29-124) [1]): 4700 µM
B2: Nt-pep (peptide, UniProt P77754 24-51, looked up)
peptide: ADTTTAAPADAKPMMHHKGKFGPHQDMM
notes: disordered N terminus of Spy as a free peptide; residue n is n+23 in P77754; also called peptide corresponding to Spy residues 1-28

Binder: B3
kon [2]: 216000 M⁻¹ s⁻¹
Kd [3]: 3.36 µM
koff [4]: 0.726 s⁻¹

kon [2]: 299000 M⁻¹ s⁻¹
kon (Spy_(29-138) [5]): 254000 M⁻¹ s⁻¹
Kd [3]: 0.67 µM
Kd (Spy_(29-138) [6]): 0.34 µM
koff [4]: 0.199 s⁻¹
koff (Spy_(29-138) [7]): 0.087 s⁻¹
B4: Im7 L18A L19A L37A (natural protein)
chain: MELKNSISDYTEAEFVQAAKEIEKENVAATDDVLDVALEHFVKITEHPDGTDLIYYPSDNRDDSPEGIVKEIKEWRAANGKPGFKQG
modifications: biotin (EZ-link NHS-biotin, 1:1 molar ratio of biotin to protein)
notes: Im7 (colicin E7 immunity protein) with L18A L19A L37A; also called Im7A3; unfolded client; source: purified by a similar procedure to Spy

kon [2]: 244000 M⁻¹ s⁻¹
kon (Spy_(29-138) [5]): 178000 M⁻¹ s⁻¹
Kd [3]: 0.47 µM
Kd (Spy_(29-138) [6]): 0.27 µM
koff [4]: 0.114 s⁻¹
koff (Spy_(29-138) [7]): 0.048 s⁻¹
B5: Im7 wild type (natural protein)
chain: MELKNSISDYTEAEFVQLLKEIEKENVAATDDVLDVLLEHFVKITEHPDGTDLIYYPSDNRDDSPEGIVKEIKEWRAANGKPGFKQG
modifications: biotin (EZ-link NHS-biotin, 1:1 molar ratio of biotin to protein)
notes: Im7 (colicin E7 immunity protein), wild type; also called Im7 WT; Im7WT; source: purified by a similar procedure to Spy

Kd (Spy_(29-124) [8]): 4740 ± 160 µM
B6: Nt-pep (peptide)
peptide: ADTTTAAPADAKPMMHHKGKFGPHQDMM
notes: Unlabeled peptide; also called Nt-pep WT; peptide corresponding to Spy residues 1-28

Kd (Spy_(29-124) [8]): 7040 ± 280 µM
Binder: ADTTTAAPADAKPMMHHKGKFGPHQRMM (peptide, UniProt P77754 24-51, looked up, Spy of E. coli, residues 1-28 with D26R) [Nt-pep D26R]

Kd (Spy_(29-124) [8]): 6330 ± 250 µM
Binder: ADTTTAAPADAKPMMHHKGKFGPHQKMM (peptide, UniProt P77754 24-51, looked up, Spy of E. coli, residues 1-28 with D26K) [Nt-pep D26K]

Binder: B7
kon [9]: 145000 M⁻¹ s⁻¹
Kd [10]: 0.4 µM
koff [11]: 0.0584 s⁻¹

fold increase in koff (against Spy wild type) (Im7 H40W L53A I54A): ~2 fold
B8: Spy_(21-130) (domain or fragment, UniProt P77754 44-153, looked up)
chain: FGPHQDMMFKDLNLTDAQKQQIREIMKGQRDQMKRPPLEERRAMHDIIASDTFDKVKAEAQIAKMEEQRKANMLAHMETQNKIYNILTPEQKKQFNANFEKRLTERPAAK
notes: previously characterized truncation mutant of Spy; residue n is n+23 in P77754; source: E. coli BL21 (DE3), purified (Ni-NTA, cation exchange, SEC); not shown: His6-SUMO, N-terminal, cleaved
